Experimental data reported in patent US20190106494A1 (published 2019).

Biological target: PD-L1 (soluble; 'PD-L1 ligand' of the Octet assay) (UniProt Q9NZQ7 19-238, limits assumed)
Experiment: BLI (Octet RED 96), antibody on anti-human IgG capture sensor, PD-L1 in solution, 1:1 fit
Method: Affinity Measurement: The affinity measurement was conducted with Octet RED 96 (ForteBio) instrument at 30 degree Celsius. Briefly, anti-human IgG capture sensor (AHC from ForteBio cat #18-5060) was equilibrated with assay buffer (1× dilution of 10× Kinetics Buffer (ForteBio, Cat #18-5032). Test antibody samples were diluted to 3 ug/mL and allowed to bind to the sensors for 5 min. The sensors were then washed in assay buffer for 3 minutes, and PD-L1 ligand diluted at different concentrations were allowed to bind to the mAb coated on the sensors for 5 minutes. Afterwards, dissociation was followed for 10 minutes in the assay buffer. The sensors could be regenerated by washing in glycine buffer and assay buffer 3 times. The data were fitted with 1:1 binding model using the ForteBio software.

PD-L1 (soluble; 'PD-L1 ligand' of the Octet assay), sequence (Q9NZQ7 19-238 limits assumed): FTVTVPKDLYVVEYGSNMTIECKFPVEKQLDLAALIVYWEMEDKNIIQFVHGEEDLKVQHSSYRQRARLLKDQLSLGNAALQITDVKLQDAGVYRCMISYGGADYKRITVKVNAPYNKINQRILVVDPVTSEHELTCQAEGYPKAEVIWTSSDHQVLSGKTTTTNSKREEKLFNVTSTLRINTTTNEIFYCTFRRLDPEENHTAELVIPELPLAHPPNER

Kd: 0.162 nM
koff: 6.2e-05 s⁻¹
kon: 769000 M⁻¹ s⁻¹
B1: 111F1 chimeric anti-PD-L1 antibody (antibody, V domains shown)
VH: CQSVKESEGGLFKPTDTLTLTCTVSGIDLNSIAISWVRQAPGNGLEWIGTIGSSGSAYYASWAKSRSTITRNTSENTVTLEMTSLTAADTATYFCAKEILYYGMDLWGPGTLVTVSS
VL: DPVMTQTPASVSEPVGGTVTINCQASQSISSYLAWYQQKPGQRPKLLIYAASNVEPGVPSRFRGRGSGTQFTLTISDLECDDAATYYCQSTYGSTGGGDYGNAFGGGTKVVVVR
